{"source": "the DeepSol protein solubility set"}
{"test": "soluble on expression in E. coli; label from the status in PepcDB or PDB records"}
{"sequence": "MDKQLNDAPCGFLALSEEGSIIAANRTLIKILDYEPEQVIGQHMNMMLTIPAQLFCQLYFFPLLKLEHHIEEIYISLKARDGEEIPVLINAIARHDSGASVFDCVL", "soluble on expression in E. coli": "not soluble"}
{"sequence": "MDLEFGRFPIFSILEDMLEAPEEQTEKTRNNPSRAYMRDAKAMAATPADVIEHPDAYVFAVDMPGIKGDEIQVQIENENVLVVSGKRQRDNKENEGVKFVRMERRMGKFMRKFQLPDNADLEKISAACNDGVLKVTIPKLPPPEPKKPKTIQVQVA", "soluble on expression in E. coli": "soluble"}
{"sequence": "MDLEYAMNPGGRRRFQNKDQATYGVFAPDSDDDDDEQGTSRGPYKKRSKISAPMSFVSGGIQQGNKIDKDDPASLNLNLGGEKKPKEDDEGSIQIDFDKRTKKAPKQNGAQVFAGMRSSANHGAADINQFGSWMRGDGNSNKIMKMMQAMGYKPGEGLGAQGQGIVEPVQAQLRKGRGAVGAYGKESTATGPKFGESAADAQKRMAQEGTSSRPTNDDQEKSGLKIKGSWKKSQTVKTKYRTIEDVMEEGMSASRPASHQQSQQYSNIKVIDMTGKQQKIYSGYDSFSMKTRSEYDTVDDEERTVFDVPELIHNLNLLVDLTEEGIRRSNQQLISLKDQTTALEYDLQQVQKSLGTEEQEAQHIKDVYELIDGFSSNRSPSMEECQELFRRLRSEFPHEYELYSLETVAIPTVLPLIQKYFVAWKPLEDKNYGCELISTWRDILDDSKNGRKMTFGHNKTKGDEIRAYDRIIWEGILPSIRRACLQWDPSTQMHEMIELVEQWIPLLSAWITENILEQLVVPKIAERVNQWDPMTDEIPIHEWLVPWLVLLGDRIQTVMPPIRQKLSKALKLWDPMDRSALETLRPWQNVWSAATFSAFIAQNIVPKLGVALDTMELNPTMNPEYPEWTACMEWLEFTHPDAIANIVTKYFFPRFYNCLCLWLDSPGVDYNEVKRWYGSWKARIPQVLVNYPTVNENLRRSMIAIGRSLQGEKVGGLQATPIAPMAPPPPMAPHFTQAAPVQKLSLKEIIEYTAGKNGFTYHPQKDRYKDGRQVFWFGALSIYLDSEMVYVMDPIEFVWRPSGLNELIQMAQGAQG", "soluble on expression in E. coli": "not soluble"}
{"sequence": "MDLGIKGKKVIVTAASKGIGLAIAKRFLEEGAKVIISSNDESNLMKAYNKLKEIHSENVSYIKADLMNPHEVKSLVHEGYRKLGGLDVLAYVTGSPKPGNLFSLSDKDWMDAFNLLLLSAVVAVREAGQLMQSGGRIILSTSTTLRQPIDNLDLSNVVRLSLAGLIKVASRELGPKGILVNGVMPGWTKTERLLQIIRDRAIREGKSEDEVLKSIVADVPLGRAGEPEEIANVVLFLASNLSTYVTGALIPVDGGSIKGVF", "soluble on expression in E. coli": "not soluble"}
{"sequence": "MDLKFKSQETGRSIGFASHLRRHGATLANHLNYTRNEFISTLADCHQNLGIEGRASSPEKQFDEDGDEIEATATKIEWQPLKCPKCHRNSENTRKLLEHLVEDHGRPQDKAWFEQFDTIGTDLKKVFDKAIRIQAENSVVKKKFQNSNDLLVCPTDSPLAPFLLMRHLQVNFQEVSQTLTEGIVLKLQIASTSYTIIFSFHKVDKARRRIKREMARKSLERRLRVLELRCARTWVPDDDVVFKKKRTSEENKALIQALKLPATSSHDDIVLKINEMKTQHDEMVK", "soluble on expression in E. coli": "not soluble"}
{"sequence": "MDLRSALEKTNIIKSYKLHFLIRYTTSRFEVKEPFLAYLHMARQKDKLLPKCITPPNKKADPFTNDVSSYFTHTHTHTPCSPSLVYTYVNTTEKSPSKSPKHKNILPFNFTK", "soluble on expression in E. coli": "not soluble"}
{"sequence": "MDLSTIKVFEQKLELHREMPMKVVKKELHFSTKGEIDLVDITREVELFVAESGISKGQVLIFVPGATGAVVAIEHEEGLLEDFKKILKEIVPKEKPYLHNRFDDNAHSHIRATLLGPSLVFPIVDGELVRGTWQQIFFVELDTRPRKRRILLQAIGE", "soluble on expression in E. coli": "soluble"}
{"sequence": "MDMQVVPKIGISSVVHSKHIDPGSIDVVGNDIALFDTESVISLYNGPSKLEVVSIGLCLEGSTRFNISLREFELIPGRMVIALPNQIIEHRQFSSNFRGIFFAVSKSLLESLPKVGNVLSFFFFLKDYPCFDLNLHEQEMIKEYHAFIRKRLKNKDDRYRREVVMGLMQGFFFELCNIFNSYAPDASAVVKSKSRKEYIFERFYESLVQSYQSERSVKFYADQLCLTPKHLSGVVKEVSGKTVGEWIDELVILEAKALLNSSSMNIQEIADRLNFANQSFFGKYFKHYTGMSPKEYRKSR", "soluble on expression in E. coli": "not soluble"}
{"sequence": "MDPLLTVLKERMRACQRRVSDRPRRQVVAIEWIDPPMASGNWIPELIALAGGENMLGTAGKHSPYIEWSTLLAIDPEVILVMPCGFDLERTRQELDQALQTYPQWQQLRALQTGQLYILDGNAYFNRPGPRLVDSLEILVEILHPCPLEHHHHHH", "soluble on expression in E. coli": "soluble"}
{"sequence": "MDQFSEPEETQVEQVENPDRNEAGYEVCNQSGENLSVAIAYFDTSIDSYRSEGWWNLDQSKCQFFPNLLDSVDEVYVFAESDQTLWSGDFPFCMQEDAFEYPDANRDRCPSPAYSKGFLKVEVGDAKTWTTLEHHHHHH", "soluble on expression in E. coli": "soluble"}
{"sequence": "MDQKREALVGPITSSPASILELSIFYEFLKAQWCAFTIGSSEPPISPRQLNLLSLLIGPSNSDQEIPRDTVAVSWVYVGFEFGESCEQFGATDEQLRGHFEYQMICTNVQCIYFVEDGKKRRMAGVTWYLRNDEKSKNHEDYNMIAIYETIREKRFEEVQKIRKLEKEEALRRGGWLGEPTDEYTSTIFSHLKLLTLKDGRLAVFACNADGEEEKFAFNERTERYEVLEDVVEVEDRPSNYLLRII", "soluble on expression in E. coli": "not soluble"}
{"sequence": "MDQSIRHLLGNLSLFTPPEEAAVYAEQHAVNKNEPLYFVVFPQADTALSELLVAGYQKLLENNFWGLTNSTQEAKDLMSRYGNTGLELYAHSRGSMTLGNMLYSFQQQGVHGIANENTTINLYGPAFNVLVASDLLGYVSDGKQTTVGFDGHRYDFVSRWIGGNSYTYKTIPSDSNAWKEWWRMFTDPDNPHTCLGDANAICNTLYGSSHLKQKP", "soluble on expression in E. coli": "not soluble"}
{"sequence": "MDQTNENVKESEPPSDDGPPILSVLCSLVDEIGSLRNENLRLKTRLVPAPRNTKNVVQRMSAMLEHRGSSIFPKLRRANRSSESMEIRNGARERLSTPPRKETSNSMNTSSDVSYGRNRAPPIVRPEQSDSEIDEQIFDDDDHRSRDTTRRCDSVNVPRHQNDNSTSACTSPSSASSSRDPSETMTTSRSSFLDLLGLRRRSTHIPQPTSYSKTTALKQTNKKRRRKISGNDNDSESSGMYANMEDHCSRVPSKPPRPASYYRRDDSEDSDCLRQMRQRKTASSLNVNNYEHRHEDMYRVSRETQWQHEKDNLMAEIEEMKMRNNRLVEQLREKSQQQSKLQCQLHKAEMQVNALSRRCALSEALDRLTLDERMEKSATSWIKKIEERLRIFENQMQNAKLEAATAHQMALNSSCHEKDAHQNCLEKLESLQREHMRVIHSSLVEIGVDEINMKRRLENLPTYEALYAFTHSVVRRLNEARWAVIEKTNETSRAQIDLIVSQSSHLVSLAQLERLKIMQTLRGKRQKRPSSFHGHSVSERNIRQDLSFYLPLKLHGSRVENSRRTIKKNAIVGNDRNIEEEFLKLFSYSKDFSMELAAPPERRANTRIETMMREMNGNGRPIIRRGPSGVSNSNIMRDRVTREVPSNRRPISLVETEERRIRRNEETKRSIKFMKTNSIDHGYNAYEPPPASRTTTTTIVASTQDISNNVHSPHGTPVFTRRIIIPVKGNAYDIVPEGTTANIVPANIPQMGRVRKLERAFSAESRNTVDSLHDREEQRRERRDHVEGGVERRQSKIQRSQPVSRLKQPSVQLSKFRTIENNGANREPPSSSILRPRTLEPQTSIPRITTSPPESRIPTPSSRHGNEKRGWLERLKGIGKL", "soluble on expression in E. coli": "not soluble"}
{"sequence": "MDQTQNTIAGIGEINGSIKTEINAIATVDDSNEKLNQIINSNQKILELLHQLKLTVSSFTPASQLHLLQRLNSLVMELDNMAKLSDKCNIQVPIEVLNLIDDGKNPDEFTKDVLNKNCIAKNQVTKGKSDAFKGLRKHLLEELEQAFPDEVDRYRDIRASYAAEAKRLAQTQSVLPNGDAKVKSEL", "soluble on expression in E. coli": "soluble"}
{"sequence": "MDREALLERLKEPFDLLVLGGGATGAGVLWEATLRGLKAALVEAGDFASGTSSRSTKLLHGGVRYLELAFKRLDRRQLKLVVDALHERKVVMDLAPHLAKPLTLVTPLFRPLEIPYYTLGLKLYDLLAGKRRLAPSRYLPPEEVARLFPDLPKTLGGVAYQDGQFADFRLNLALVLSALERGAVALNHAEATALLLEGGRVRGAVVRDGLSGKEVEVRAKAVVNATGSLADRVRRLLDPHLPPLLTASSGVHLVLDYPLEAGLLVPKTRDGRVLFLLPYRGMALLGTTDLPAEPASCPLPREEEVAYLLEEIRPYLGDVSGRVRAVWSGLRPLVGKGETKLLVRDHYIEERRGLYTLVGGKWTTFRLMALDLVERLAKDLGLALPPSKSHATPLLGAGPRPPLPLPEEAARRLWETYGTLAPEVLALGDRPLLPGLPYLEGEVVWAVRRELARKPLDVLARRMGLAFLDQEKTREALPKVVELMAGLLGWDERERALRLKEAEEGLPGLC", "soluble on expression in E. coli": "soluble"}
{"sequence": "MDREHLIKLACARNPDLEMCEQLKARNVRDSNSGKLEMIEPPPLPPSMKAAKRRDIHAAHDENSEQKPVRYRALSAEEVRILQTKCARVGPLVQKHCQPKKTSARNAGRCAAYFRDCAQFIEKGDPLGAIANSFDSGVNINLANVDVKGIPYYPLNEEGAVGVGVGLGIPFGAWGGGASTSVGVRDYFHGDQEVGANWYDGKYGYKNHWNIPLVQSLGVEGGQHNTVSFPLHGKDAGNLKVDNGYGVGGYYQQNDHVGVNYKEGDVRHTFGVSSPFVGAGFQTGQAVAFPGLDVWERALG", "soluble on expression in E. coli": "not soluble"}
{"sequence": "MDRFDAMRAFARVVETGSFTKAADTLHMSKTSVTQLVQQLEARLRVRLLNRTTRKVNATADGAAYYERVRQLLADLEDAETSLSGASATPGGRLRVDVPSPFASTILVPALPAFQARYPDILLHLGVSDREVDLIDENVDCVIRGGQIGNLSLAARHVGDLQLGVYASPGYLARAGVPAHPRELQDAQHRIIGFSWSRARRLFPCAMRRRADERIEVAGRHALLLDEGNAYLAAGLAAMGVIGVPTYMAEAHVERGALIRLFGDWRLDPMPLYIAYPQNRHVSAKLRVFIDWIVELMARHAPVTDAPPPHRSARMPGGPAAIPTDITGA", "soluble on expression in E. coli": "not soluble"}
{"sequence": "MDRIVEIEKYSFDETYETSLRPSNFDGYIGQESIKKNLNVFIAAAKKRNECLDHILFSGPAGLGKTTLANIISYEMSANIKTTAAPMIEKSGDLAAILTNLSEGDILFIDEIHRLSPAIEEVLYPAMEDYRLDIIIGSGPAAQTIKIDLPKFTLIGATTRAGMLSNPLRDRFGMQFRLEFYKDSELALILQKAALKLNKTCEEKAALEIAKRSRSTPRIALRLLKRVRDFADVNDEEIITEKRANEALNSLGVNELGFDAMDLRYLELLTAAKQKPIGLASIAAALSEDENTIEDVIEPYLLANGYIERTAKGRIASAKSYSALKLNYEKTLFEE", "soluble on expression in E. coli": "not soluble"}
{"sequence": "MDRKGFLKSTMIATGSLLLGGAGICRFLNDKEPADGPFPRTIEKIHCGNMKKVLVIMSAGTKLGNTDRLTDAYIKGLVERGHSVTKVYLGSMRIEGCRGCGVCQRLAHQCAVRDGMQDIYPLFAECDTVVMASPLYFWTITSQLKAFIDRLYAISADDKYPQKDTVLLMTAGDDNENTFDQPKQYFRLLSQALGWNEVGIYCAGGCTGCEKLARQIDKVHLENVYKMGLEL", "soluble on expression in E. coli": "not soluble"}
{"sequence": "MDRTRIVRRWRRNMDVADDAEYVEMLATLSEGSVRRNFNPYTDIDWESPEFAVTDNDPRWILPATDPLGRHPWYQAQSRERQIEIGMWRQANVAKVGLHFESILIRGLMNYTFWMPNGSPEYRYCLHESVEECNHTMMFQEMVNRVGADVPGLPRRLRWVSPLVPLVAGPLPVAFFIGVLAGEEPIDHTQKNVLREGKSLHPIMERVMSIHVAEEARHISFAHEYLRKRLPRLTRMQRFWISLYFPLTMRSLCNAIVVPPKAFWEEFDIPREVKKELFFGSPESRKWLCDMFADARMLAHDTGLMNPIARLVWRLCKIDGKPSRYRSEPQRQHLAAAPAA", "soluble on expression in E. coli": "not soluble"}
